Reference: PMC6488853 (2019)

Biological target: T1, Spermine synthase (Homo sapiens, UniProt P52788)
T1 chain: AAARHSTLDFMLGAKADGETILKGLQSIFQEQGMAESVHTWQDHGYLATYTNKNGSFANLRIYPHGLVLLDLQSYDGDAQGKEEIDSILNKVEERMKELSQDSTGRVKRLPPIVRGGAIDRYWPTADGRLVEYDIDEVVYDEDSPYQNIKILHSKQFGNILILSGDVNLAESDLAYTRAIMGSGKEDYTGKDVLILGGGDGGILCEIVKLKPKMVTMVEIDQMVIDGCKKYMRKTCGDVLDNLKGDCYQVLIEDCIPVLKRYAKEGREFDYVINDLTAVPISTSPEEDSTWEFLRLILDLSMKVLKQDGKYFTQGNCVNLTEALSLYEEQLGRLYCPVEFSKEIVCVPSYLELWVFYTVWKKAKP
Assay: MST

Kd: 3.5 µM
B1: Myosin Va GTD (protein)
chain: MENISPGQIIDEPIRPVNIPRKEKDFQGMLEYKKEDEQKLVKNLILELKPRGVAVNLIPGLPAYILFMCVRHADYLNDDQKVRSLLTSTINSIKKVLKKRGDDFETVSFWLSNTCRFLHCLKQYSGEEGFMKHNTSRQNEHCLTNFDLAEYRQVLSDLAIQIYQQLVRVLENILQPMIVSGMLEHETIQGVSGVKPTGLRKRTSSIADEGTYTLDSILRQLNSFHSVMCQHGMDPELIKQVVKQMFYIIGAITLNNLLLRKDMCSWSKGMQIRYNVSQLEEWLRDKNLMNSGAKETLEPLIQAAQLLQVKKKTDDDAEAICSMCNALTTAQIVKVLNLYTPVNEFEERVSVSFIRTIQMRLRDRKDSPQLLMDAKHIFPVTFPFNPSSLALETIQIPASLGLGFISRV
